# According to patent US20220306702:
# Assays:
# [1] = molecular target: GST-TAB2 protein substrate [GST: P08515]
# [2] = molecular target: 64 other human C4 ZF containing proteins
protein,measurement,setting,value
NLeE from Shigella (Shigella NleE) (protein) GSMRKKRRQRRRSIEIKMISPIKNIKNVFPINTANTEYIVRNIYPRVEHGYFNESPNIYDKKYISGITRSMAQLKIEEFINEKSRRLNYMKTMYSPCPEDFQPISRDEASTPEGSWLTVISGKRPMGQFSVDSLYHPDLHALCELPEISCKIFPKENSDFLYIIVVFRNDSPQGELRANRFIELYDIKREIMQVLRDESPELKSIKSEIIIAREMGELFSYASEEIDSYIKQMNDRLSQIKARMPVTGSRS,methylase activity (MTase glo assay),[1],the Shigella NleE showed methylase activity at levels comparable to that seen for the EPEC NleE
wild-type NleE (EPEC NleE) (protein) MINPVTNTQGVSPINTKYAEHVVKNIYPEIKHDYFNESPNIYDKKYISGITRGVAELKQEEFVNEKARRFSYMKTMYSVCPEAFEPISRNEASTPEGSWLTVISGKRPMGQFSVDSLYNPDLHALCELPDICCKIFPKENNDFLYIVVVYRNDSPLGEQRANRFIELYNIKRDIMQELNYELPELKAVKSEMIIAREMGEIFSYMPGEIDSYMKYINNKLSKIE,modification by NleE (cysteine methylation assay),[2],But few of them were modified by NleE
